The values below come from patent US20240294644A1 (BLUEFIN BIOMEDICINE, published 2024).

Test [1] addresses T1, VTCN1 IgC domain only construct expressed on 293 cells (human, UniProt Q7Z7D3 150-259, limits assumed).
T1 construct: The construct lacks the IgV domain
T1 sequence: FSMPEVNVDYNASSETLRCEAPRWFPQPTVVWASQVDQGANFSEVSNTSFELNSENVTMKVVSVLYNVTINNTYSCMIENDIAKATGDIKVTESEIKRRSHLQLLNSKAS
As to the kind of experiment: flow cytometry on 293-VTCN1-IgC domain cells. Background: A flow cytometer gives signals particle by particle.

In test [2] the target is T2, human VTCN1 expressed on cells (293-VTCN1 cells; SKBR3, MX-1 and ZR-75-1 cells that express it naturally) (human, UniProt Q7Z7D3 25-282).
T2 construct: The cDNA was bought from Origene
T2 sequence: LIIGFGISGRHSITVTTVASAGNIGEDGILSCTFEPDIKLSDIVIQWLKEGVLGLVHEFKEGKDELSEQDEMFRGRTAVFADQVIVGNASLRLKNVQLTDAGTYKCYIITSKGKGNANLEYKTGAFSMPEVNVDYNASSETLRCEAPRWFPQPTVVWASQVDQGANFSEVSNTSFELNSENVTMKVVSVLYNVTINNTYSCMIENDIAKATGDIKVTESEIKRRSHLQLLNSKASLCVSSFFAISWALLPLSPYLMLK
The test is described as follows: flow cytometry and immunofluorescence on cells.

Test [3] concerns the target T3, VTCN1 IgV domain only construct expressed on 293 cells (human, UniProt Q7Z7D3 29-149, limits assumed).
T3 construct: The construct lacks the IgC domain
T3 sequence: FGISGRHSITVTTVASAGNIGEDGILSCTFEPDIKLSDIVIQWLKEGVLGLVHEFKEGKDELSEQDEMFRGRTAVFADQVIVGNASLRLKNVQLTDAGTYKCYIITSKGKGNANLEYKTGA
As to the kind of experiment: flow cytometry on 293-VTCN1-IgV domain cells.

Test [4] has as its target T4, mouse VTCN1 expressed on 293 cells (mouse, UniProt Q7TSP5 25-257).
T4 construct: whole, on cells
T4 sequence (looked up): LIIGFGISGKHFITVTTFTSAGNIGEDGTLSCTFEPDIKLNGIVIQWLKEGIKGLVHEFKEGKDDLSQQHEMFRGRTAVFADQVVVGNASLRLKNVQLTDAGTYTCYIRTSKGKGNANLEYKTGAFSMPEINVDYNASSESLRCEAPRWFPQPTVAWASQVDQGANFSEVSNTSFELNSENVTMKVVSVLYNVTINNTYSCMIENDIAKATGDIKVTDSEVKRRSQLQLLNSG
The test is described as follows: flow cytometry on 293-VTCN1 (mouse) cells.

B1: 7C8 (antibody, V domains shown)
VH: QVQLQESGPGLVKPSETLSLTCAVSGYSISSGYYWGWIRQPPGKGLEWIGSIYHSGTTYYNPSLKSRVTISVDTSKNQFSLKLNSVTAADTAVYYCATYSSGWYFYFDYWGQGTLVTVSS
VL: DIQLTQSPSFLSASVGDRVTITCRASQGISSYLAWYQQKPGKAPKLLIYVASTLQSGVPSRFSGSGSGTEFTLTISSLQPEDFATYYCQQLNSYPITFGQGTRLEIK
notes: Fully human antibody; also called VTCN1 antibody 7C8
Take B1: the binding result was “no binding” in test [1], “binds” in test [2], “no binding” in test [3] and “binds” in test [4].
